By Kd is commonly meant the free concentration of one partner at which half of the binding sites on the other are occupied at equilibrium, for simple one-to-one binding.

The target of the test is Integrin alpha1beta1 (Homo sapiens, UniProt P56199). Briefly: MST.
Chain of Integrin alpha1beta1 (P56199 29-1141, chain 1 of 2): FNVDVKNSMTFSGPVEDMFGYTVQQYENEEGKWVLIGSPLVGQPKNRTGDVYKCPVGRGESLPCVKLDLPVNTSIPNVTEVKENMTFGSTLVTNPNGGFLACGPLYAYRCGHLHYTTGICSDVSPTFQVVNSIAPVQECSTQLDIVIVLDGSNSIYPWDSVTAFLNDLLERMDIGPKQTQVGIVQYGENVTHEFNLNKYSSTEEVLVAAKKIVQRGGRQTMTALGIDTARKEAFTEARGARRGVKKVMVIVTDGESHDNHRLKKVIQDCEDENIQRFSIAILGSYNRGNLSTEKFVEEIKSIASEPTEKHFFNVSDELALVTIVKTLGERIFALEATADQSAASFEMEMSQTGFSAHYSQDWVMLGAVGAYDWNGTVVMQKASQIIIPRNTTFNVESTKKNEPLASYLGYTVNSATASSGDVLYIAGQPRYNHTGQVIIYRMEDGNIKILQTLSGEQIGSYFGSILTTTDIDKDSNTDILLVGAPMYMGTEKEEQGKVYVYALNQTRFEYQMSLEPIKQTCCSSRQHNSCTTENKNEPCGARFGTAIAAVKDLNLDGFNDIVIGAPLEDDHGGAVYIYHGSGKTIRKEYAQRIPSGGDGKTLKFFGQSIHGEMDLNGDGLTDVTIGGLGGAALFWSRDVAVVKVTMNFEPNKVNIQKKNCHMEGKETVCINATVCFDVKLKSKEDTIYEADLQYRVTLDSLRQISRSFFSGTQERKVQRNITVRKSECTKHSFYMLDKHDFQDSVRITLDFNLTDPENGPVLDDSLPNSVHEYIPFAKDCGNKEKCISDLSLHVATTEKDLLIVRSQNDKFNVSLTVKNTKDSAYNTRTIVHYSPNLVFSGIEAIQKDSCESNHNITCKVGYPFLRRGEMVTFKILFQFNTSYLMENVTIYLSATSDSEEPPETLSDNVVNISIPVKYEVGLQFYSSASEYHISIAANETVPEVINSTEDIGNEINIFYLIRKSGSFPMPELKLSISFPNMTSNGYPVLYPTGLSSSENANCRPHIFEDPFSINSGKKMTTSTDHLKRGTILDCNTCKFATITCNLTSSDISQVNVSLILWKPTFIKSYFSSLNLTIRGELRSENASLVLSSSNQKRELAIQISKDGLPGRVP
Chain of Integrin alpha1beta1 (chain, as listed by the source, chain 2 of 2): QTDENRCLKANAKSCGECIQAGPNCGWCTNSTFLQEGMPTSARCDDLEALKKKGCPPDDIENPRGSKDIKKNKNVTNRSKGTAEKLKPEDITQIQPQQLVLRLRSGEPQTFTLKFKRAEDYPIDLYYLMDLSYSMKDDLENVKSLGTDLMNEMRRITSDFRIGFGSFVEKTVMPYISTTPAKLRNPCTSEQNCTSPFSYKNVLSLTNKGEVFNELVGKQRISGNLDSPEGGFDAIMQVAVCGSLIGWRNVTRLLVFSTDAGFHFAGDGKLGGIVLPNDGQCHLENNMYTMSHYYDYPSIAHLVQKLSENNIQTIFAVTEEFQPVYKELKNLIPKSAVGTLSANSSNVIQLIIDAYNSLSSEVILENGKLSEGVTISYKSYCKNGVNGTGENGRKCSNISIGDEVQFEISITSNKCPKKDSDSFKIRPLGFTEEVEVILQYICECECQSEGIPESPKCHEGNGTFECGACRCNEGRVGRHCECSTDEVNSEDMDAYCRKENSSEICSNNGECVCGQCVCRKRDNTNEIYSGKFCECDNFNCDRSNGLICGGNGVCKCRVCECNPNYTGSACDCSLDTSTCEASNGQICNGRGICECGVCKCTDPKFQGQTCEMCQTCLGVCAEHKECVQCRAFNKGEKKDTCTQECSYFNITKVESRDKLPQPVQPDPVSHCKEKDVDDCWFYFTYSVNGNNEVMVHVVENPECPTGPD
For DPGFPGMKGK [Collagen alpha-6(IV) chain peptide 30], the equilibrium dissociation constant (Kd) came out at 19.7 µM. Molecule FKGTKGRDGL [Collagen alpha-6(IV) chain peptide 25] registered a dissociation constant Kd of 351 µM.

On to NKESGFPGLR [Collagen alpha-6(IV) chain peptide 8], for which the dissociation constant (Kd) worked out at 1470 µM. Turning to GFQGEKGVKG [Collagen alpha-6(IV) chain peptide 5], the affinity, expressed as Kd, was 790 µM. In turn, LAPGSFKGMK [Collagen alpha-6(IV) chain peptide 4] came in with an equilibrium dissociation constant (Kd) of 59.2 µM. The figure for KGARGDRGSG [Collagen alpha-6(IV) chain peptide 10] is 47.3 µM; for GPPGSIVKKG [Collagen alpha-6(IV) chain peptide 19] it is 2190 µM.

(Values after PMC8708666 (2021).)
